One substance from patent US6063627 can be followed below.

Bounds are passed on as bounds.

The test system of the series is Cre recombinase (Bacteriophage P1). Briefly: cell_activity. The note with it: cotransfection with Cre-expressing plasmid.

In the case of Lox sites in pEOBglugl, the activity (log induction of beta-glucuronidase) was > 3.
